From paper doi:10.1101/2025.10.07.680968, “Widespread genomic heterogeneity at the type II NAD(P)H dehydrogenase locus predisposes Cryptosporidium to clofazimine resistance” (bioRxiv, 2025)

Experiments:
[1] = target: T1, CpNDH2 (CpNDH2-WT; MBP-CpNDH2) (Cryptosporidium parvum, UniProt F0X6E5); test: inhibition of menadione reduction, NADH oxidation at […] nm; type: biochemical
T1 construct: gene cgd7_1900; full-length ORF (568 predicted residues), N-terminal MBP fusion from pMAL-c5X, E. coli BL21(DE3), amylose-resin purified

[2] = test system: CC(C)=CCC/C(C)=C/CC/C(C)=C/CC/C(C)=C/CC1=C(C)C(=O)c2ccccc2C1=O; test: purified protein; settings: 400 μM NADH, pH 7.0, 25 °C, 0.1% Triton X-100, intact MBP fusion, Michaelis-Menten
[3] = test system: CC(C)N=c1cc2n(-c3ccc(Cl)cc3)c3ccccc3nc-2cc1Nc1ccc(Cl)cc1; test: purified protein; settings: 400 μM NADH, pH 7.0, 25 °C, 0.1% Triton X-100, intact MBP fusion, positive cooperativity
CC1=CC(=O)c2ccccc2C1=O = test: purified protein; settings: 400 μM NADH, pH 7.0, 25 °C, 0.1% Triton X-100, Michaelis-Menten
[4] = test system: COC1=C(OC)C(=O)C(C/C=C(\C)CCC=C(C)C)=C(C)C1=O; test: purified protein; settings: 400 μM NADH, pH 7.0, 25 °C, 0.1% Triton X-100, intact MBP fusion, positive cooperativity

T1 sequence (F0X6E5 entry or part of it): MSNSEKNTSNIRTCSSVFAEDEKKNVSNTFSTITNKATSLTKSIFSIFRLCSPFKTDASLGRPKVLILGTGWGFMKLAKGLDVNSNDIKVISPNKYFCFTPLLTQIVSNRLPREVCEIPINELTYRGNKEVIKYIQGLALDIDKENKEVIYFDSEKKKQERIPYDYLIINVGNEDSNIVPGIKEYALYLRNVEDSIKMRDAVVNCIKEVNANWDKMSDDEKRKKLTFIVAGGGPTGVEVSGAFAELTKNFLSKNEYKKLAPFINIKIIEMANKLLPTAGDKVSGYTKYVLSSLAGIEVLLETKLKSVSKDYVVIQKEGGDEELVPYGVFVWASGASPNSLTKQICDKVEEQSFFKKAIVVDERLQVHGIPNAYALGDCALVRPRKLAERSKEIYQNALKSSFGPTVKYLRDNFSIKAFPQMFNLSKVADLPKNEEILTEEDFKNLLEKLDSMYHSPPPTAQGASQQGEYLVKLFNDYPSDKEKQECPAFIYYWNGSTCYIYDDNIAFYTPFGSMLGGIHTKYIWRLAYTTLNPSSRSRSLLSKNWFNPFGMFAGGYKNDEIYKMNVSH

Compound | IC50 [1] [nM] | Km [2] [µM] | K0.5 [3] [µM] | Km (CC1=CC(=O)c2ccccc2C1=O) [µM] | K0.5 [4] [µM]
CC(C)/N=c1\cc2n(-c3ccc(Cl)cc3)c3ccccc3nc-2cc1Nc1ccc(Cl)cc1 [CFZ, clofazimine] | 2950 | – | – | – | –
CpNDH2 (CpNDH2-WT; MBP-CpNDH2) (Cryptosporidium parvum) | – | 139.3 | 30.0 | 113.7 | 7.17
